The source of these data is patent US20030235860A1, “Interactions between AR, ER, TR2, and TR4” (priority 1999, published 2003).

Type in all cases: cell-based
In one experiment the target is T1, TR4 (Homo sapiens, UniProt P49116).
T1 construct: full-length AR and TR4 in eukaryotic expression vectors (pSG5AR and pCMXTR4) were co-transfected; expressed in transfected cells; host or cells: H1299, HepG2
T1 sequence (P49116 1-615 isoform P49116-2 N175S/W419R/A428G/K503N/L504W/A613V): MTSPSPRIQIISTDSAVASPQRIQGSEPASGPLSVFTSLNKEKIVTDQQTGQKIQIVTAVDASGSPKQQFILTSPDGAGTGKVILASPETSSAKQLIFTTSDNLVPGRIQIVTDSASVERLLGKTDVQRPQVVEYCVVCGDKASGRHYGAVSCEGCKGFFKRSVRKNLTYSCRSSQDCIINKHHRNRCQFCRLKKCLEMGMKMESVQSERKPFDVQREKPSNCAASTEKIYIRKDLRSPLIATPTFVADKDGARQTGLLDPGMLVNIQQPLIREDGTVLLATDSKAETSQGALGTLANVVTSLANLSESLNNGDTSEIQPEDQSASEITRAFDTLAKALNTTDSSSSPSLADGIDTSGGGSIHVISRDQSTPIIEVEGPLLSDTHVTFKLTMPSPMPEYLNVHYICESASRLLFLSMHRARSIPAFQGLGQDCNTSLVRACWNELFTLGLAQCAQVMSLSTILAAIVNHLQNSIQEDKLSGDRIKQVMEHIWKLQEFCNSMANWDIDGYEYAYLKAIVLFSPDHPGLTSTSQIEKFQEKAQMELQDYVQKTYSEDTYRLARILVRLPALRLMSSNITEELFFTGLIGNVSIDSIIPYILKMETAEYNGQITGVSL
In words: TR4-mediated transactivation reporter assay. The procedure:
Cells were routinely maintained in DMEM with 10% heat-inactivated fetal bovine serum. The cells were transfected using a modified calcium phosphate precipitation method, Mizokami, & Chang, J: Biol. Chem. 269,25655-25659 (1994), or SuperFect (Qiagen). To normalize the transfection efficiency, the (3-galactosidase expression ver and pRL-TK were co-transfected in CAT assay and in Dual-luciferase reporter assay system (Promega), respectively.
More specifically, 500 ng of reporter plasmids were co-transfected(DR4-CAT and CNTFR-15-LUC) with 200 ng of pCMX-TR4 and increasing amounts of pCMV-AR (200, 600, and 1,200 ng), pSG5GR (1,200 ng), or pSG5 PR (1,200 ng) using the SuperFect transfection kit (Qiagen) (PCMV AR Mowszowicz et al., (1993) Molecular Endocrinology 7:861:869). […] Similar results were obtained when the DR4-TK-CAT reporter was replaced with DR1-CNTFR-15-LUC, another TR4 response element (FIG. 3A). Young, et al., J: Biol. Chem. 272,3109-3116 (1997).
Another TR4 potential target gene, which is located in the hepatitis B virus (HBV) enhancer II region (−34 to −7) containing a classic DR1 motif. Breidbart, et al., Pediatric Res. 34,300-302 (1993), was investigated. The reporter plasmid CpFL(4)-LUC, which contains the HBV core promoter (Cp) sequence located between −34 and −7 (nucleotide coordinates 1751 and 1778 derived from the Genbank database) was shown above in FIG. 3B. The arrows indicate the DRI motif in HBV core promoter. HepG2 cells were co-transfected with 1.5 μg CpFL(4)-LUC reporter and 0.5 μg pCMX-TR4, with increasing amounts of pCMV-AR (0.5, 2.5, and 5 μg) by modified calcium phosphate precipitation method. The relative reporter gene activities were compared to the CAT activities (or luciferase activities) with vector alone. To normalize the transfection efficiency, the β-galactosidase expression vector and pRL-TK were co-transfected in the CAT assay and in the Dual-luciferase reporter assay system (Promega), respectively.
(In general: A reporter such as luciferase makes a cellular process visible.)

The next experiment relates to cyclin D1. In words: Western blot of cyclin D1 in MCF-7-TR4 cells. The following applies: 10 nM E2, Dox. The procedure: MCF-7-TR4 or MCF-7-pBIG cells were cultured in DMEM containing 10% charcoal dextran-treated FBS for 3 days and then 1×10^6 cells were seeded on 100-mm dishes. […] The lysate protein amount was quantitated by Bradford assay (Bio-Rad, Hercules, Calif.) with bovine serum albumin as a reference standard. One hundred μg protein was loaded and after electrophoresis on 10% SDS-PAGE was transferred onto Immobulin (Milipore, Bedford, Mass.). The membrane was blotted with anti-cyclin D1 rabbit polyclonal Ab (H-295) (Santa Cruz). Alkaline phosphatase conjugated secondary Ab was used.

Another experiment concerns pS2. Kind of experiment: Northern blot of pS2 in MCF-7-TR4 cells. The following applies: 2 μg/ml Dox, E2.
For a further experiment, the target named is T2, AR (Homo sapiens, UniProt P10275, DEL79-80/DUP473-473).
T2 sequence (P10275 with tags, fused parts or gaps DEL79-80/DUP473-473): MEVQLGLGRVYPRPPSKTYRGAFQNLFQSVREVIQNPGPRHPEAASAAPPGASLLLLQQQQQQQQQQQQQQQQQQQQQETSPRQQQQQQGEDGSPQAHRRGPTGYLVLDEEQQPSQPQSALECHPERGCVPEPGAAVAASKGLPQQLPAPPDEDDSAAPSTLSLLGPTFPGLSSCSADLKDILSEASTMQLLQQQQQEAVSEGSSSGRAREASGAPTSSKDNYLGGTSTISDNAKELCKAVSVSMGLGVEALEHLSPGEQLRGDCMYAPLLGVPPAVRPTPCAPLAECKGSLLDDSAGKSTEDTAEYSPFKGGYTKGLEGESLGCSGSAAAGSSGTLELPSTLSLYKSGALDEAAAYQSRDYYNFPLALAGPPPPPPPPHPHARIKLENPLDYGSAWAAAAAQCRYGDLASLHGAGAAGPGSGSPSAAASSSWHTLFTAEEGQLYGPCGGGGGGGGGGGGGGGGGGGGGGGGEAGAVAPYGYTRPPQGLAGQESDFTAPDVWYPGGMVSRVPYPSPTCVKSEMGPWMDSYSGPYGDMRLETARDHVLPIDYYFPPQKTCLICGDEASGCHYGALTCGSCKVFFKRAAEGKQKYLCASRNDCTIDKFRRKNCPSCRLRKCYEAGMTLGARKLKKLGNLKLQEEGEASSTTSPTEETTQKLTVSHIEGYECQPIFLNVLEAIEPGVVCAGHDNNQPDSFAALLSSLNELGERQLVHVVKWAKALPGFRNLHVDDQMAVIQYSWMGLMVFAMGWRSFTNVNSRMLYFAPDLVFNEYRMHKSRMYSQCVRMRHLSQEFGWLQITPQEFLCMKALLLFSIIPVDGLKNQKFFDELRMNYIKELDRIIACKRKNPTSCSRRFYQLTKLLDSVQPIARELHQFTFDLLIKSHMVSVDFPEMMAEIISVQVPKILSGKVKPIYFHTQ
Kind of experiment: Immunocytofluorescence of AR localization in DU145 cells. More on the design: expressed in transfected cells; host or cells: DU145 cells. The following applies: absence of DHT.

Procedure for AR: DU145 cells were seeded on two-well Lab Tek Chamber slides (Nalge Nunc International) 18 h before transfection. One to two μg of DNA per 10^5 cells was transfected by the FuGENETM 6 transfection reagent (Boehringer-Mannheim). […] Immunostaining was performed by incubating with anti-AR polyclonal antibody (NH27), anti-TR4 monoclonal antibody (#15), and anti-ERa monoclonal antibody (C-314, Santa Cruz), followed by incubation with either fluorescein-conjugated goat anti-rabbit or anti-mouse antibodies (ICN Pharmaceuticals, Inc.). […] The slides were photographed under 100-fold magnification using confocal microscopy.
An immunocytofluorescence assay was then applied to determine the subcellular localization of the AR and TR4 in DU145 cells. DU145 cells were seeded on two-well Lab Tek Chamber slides (Nalge Nunc International) 18 hours before transfection. One to two μg of DNA per 105 cells was transfected either with AR (unliganded or liganded), TR4, or ER alone or in combination with the FuGENETM6 transfection reagent (Boehringer-Mannheim). […] Immunostaining was performed by incubation with the anti-AR polyclonal antibody, anti-TR4 monoclonal antibody, or anti-ERa monoclonal antibody, followed by incubation with either fluorescein-conjugated goat anti-rabbit or anti-mouse antibodies (ICN Pharmaceuticals, Inc.).

Consider AR: androgen receptor, SEQ ID NO:31, for which the “CAT activity induced by pCMXTR4 (DR4-TK-CAT; similar with DR1-CNTFR-I5-LUC)” value with TR4 (H1299 cells, absence or presence of DHT) is given as “repressed significantly”. Moreover, in the experiment with TR4 (HepG2 cells, increasing pCMV-AR), the “TR4-induced CpFL(4)-LUC activity (HBV core promoter)” value is on record as “significantly decreased”. For the same molecule, in the experiment with TR4 (Table 5), the “Activity TR4 (effect of regulator on transcription activity)” value is reported as “Down”.

B1: TR4: human testicular orphan nuclear receptor 4, SEQ ID NO:16; expressed from plasmid or in vitro translated (protein)
chain: T1 sequence (P49116 1-615 isoform P49116-2 N175S/W419R/A428G/K503N/L504W/A613V)
Turning to B1, the “Cyclin D1 expression” value with cyclin D1 is “suppress”. In the experiment with pS2, the “Expression of ER endogenous target gene pS2” value was “repress”. Moreover, the “Subcellular localization of unliganded AR on co-transfection” value with AR is “moves into the nucleus”.
